# Changes are numbered by the printed parent chain. Names may count otherwise.
# B1: D-dopachrome tautomerase (D-DT or MIF-2), wild type (natural protein, human, UniProt P30046 1-118, looked up)
# chain: MPFLELDTNLPANRVPAGLEKRLCAAAASILGKPADRVNVTVRPGLAMALSGSTEPCAQLSISSIGVVGTAEDNRSHSAHFFEFLTKELALGQDRILIRFFPLESWQIGKIGTVMTFL
# B2: C56S MIF-2 bound to Ebselen (Cys23 covalently modified) (natural protein, human, UniProt P30046 1-118, looked up)
# chain: B1 chain with C57S
# modifications: Cys23 covalently modified by Ebselen
# B3: WT MIF-2 bound to Ebselen (Cys23 covalently modified) (natural protein, human, UniProt P30046 1-118, looked up)
# chain: B1 chain
# modifications: Cys23 covalently modified by Ebselen
# B4: MIF-2 C56S variant (natural protein, human, UniProt P30046 1-118, looked up)
# chain: B1 chain with C57S
# Target: the molecule itself
# Test: NMR spin relaxation
row,Protein,stoichiometry N
1,B1,3
2,B2,3
3,B3,3
4,B4,3

# — paper doi:10.1101/2025.05.15.654344 (bioRxiv, 2025)
